This note sets out measurements from patent US20220204611A1 (Amgen, published 2022).

T1: human TREM2 on cells (human, UniProt Q9NZC2 19-230)
T1 sequence: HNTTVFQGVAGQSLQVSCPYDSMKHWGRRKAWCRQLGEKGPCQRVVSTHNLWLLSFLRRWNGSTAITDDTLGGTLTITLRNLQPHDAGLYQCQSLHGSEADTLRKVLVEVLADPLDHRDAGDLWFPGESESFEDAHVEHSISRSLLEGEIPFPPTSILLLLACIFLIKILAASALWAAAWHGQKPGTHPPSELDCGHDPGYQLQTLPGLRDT

T2: recombinant soluble human TREM2 protein (human TREM2 ECD-FlagHis) (human, UniProt Q9NZC2 19-174)
T2 sequence: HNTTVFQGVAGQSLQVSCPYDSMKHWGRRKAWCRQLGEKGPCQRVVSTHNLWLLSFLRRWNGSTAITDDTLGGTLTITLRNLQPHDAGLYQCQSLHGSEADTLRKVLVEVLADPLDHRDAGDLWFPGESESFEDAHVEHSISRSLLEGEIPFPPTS

T3: soluble human TREM2 protein (TREM2 ECD-huIgG1 Fc fusion protein) (human, UniProt Q9NZC2 19-174, biotinylated)
T3 construct: also called biotinylated soluble human TREM2 protein
T3 sequence: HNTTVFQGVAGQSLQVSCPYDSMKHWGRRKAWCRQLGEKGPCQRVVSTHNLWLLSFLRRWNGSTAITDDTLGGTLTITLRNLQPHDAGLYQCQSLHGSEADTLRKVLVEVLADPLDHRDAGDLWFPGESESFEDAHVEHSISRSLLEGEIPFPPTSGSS

B1: 25F12 (antibody, human IgG2, V domains shown)
VH: QVQLQQWGAGLLKPSETLSLTCAVYGGSFSSYYWSWIRQPPGKGLEWIGEINHSGNTNYNPSLKSRVTISVDTSKNQFSLKLSSVTAADTAVYYCAREGYYDILTGYHDAFDIWDQGTMVTVFS
VL: not shown
notes: human IgG2 from hybridoma
B2: 24A10 (antibody, human IgG2, V domains shown)
VH: EVQVLESGGGLVQPGGSLRLSCAASGFTFSNYAMSWVRQAPGKGLEWVSAISGSGGSTYYADSVKGRFTISRDNSKNTLYLQMNSLRAEDTAVYYCAKGGWELFYWGQGTLVTVSS
VL: not shown
notes: human IgG2 from hybridoma
B3: 26A10 (antibody, V domains shown)
VH: EVQLVESGGALVQRGGSLRLSCAASRFTFSSFGMSWVRQAPGKGLEWVSYISSSSFTIYYADSVKGRFTISRDNAKNSFYLQMNSLRDEDTAVYYCAREGGLTMVRGVSSYGLDVWGQGTTVTVSS
VL: not shown
notes: human IgG2 from hybridoma
B4: 26F2 (antibody, V domains shown)
VH: B3 VH with R14P, R26G, V48I, Y95F, L102I, L113M
VL: not shown
notes: human IgG2 from hybridoma

Residue numbers refer to the chain shown, from its start.

One experiment concerns the target T1, human TREM2 on cells. As to the kind of experiment: cell-based or functional assay.
In the case of B1, the “pSyk EC50” value is 2.6 nM.
Regarding B2, the “pSyk EC50” value was 32.9 nM.
On the same count and under the same terms, under B3 stands 1.3 nM.
Same read-out and setting: to B4 belongs 1.4 nM.

The target of a further experiment is T1, human TREM2 on cells. The experiment is described as follows: cell-based or functional assay. The source holds these as a separate data set.
B1: the “Emax (% maximum activation compared to RnD antibody)” value was 122% and the “pSyk EC50, differentiated THP-1 cells” value is 1.05 nM.
As for B4, the “Emax (% maximum activation compared to RnD antibody)” value was 207% and the “pSyk EC50, differentiated THP-1 cells” value is 77.8 pM.

In another experiment the target is T2, recombinant soluble human TREM2 protein …. The experiment is described as follows: Octet BLI binning; competitor: load Ab 4C5. The method, then: (§1) Each of sixteen different anti-TREM2 antibodies produced from hybridomas were quantitated and loaded onto one of the anti-human Fc sensors at 5 μg/mL for 2 minutes (“Load Antibody”). The sensor was then blocked with 100 μg/mL of an irrelevant human IgG2 antibody for 5 minutes. […] Next, each of the sixteen different anti-TREM2 antibodies (“Sandwich Antibody”) was added to the sensor at 5 μg/mL and allowed to bind for 5 minutes. All assay buffers contained 10 mM Tris (pH 7.6), 0.1% Triton X-100, 150 mM NaCl, 1 mM CaCl₂, and 1 mg/mL BSA. The assay was conducted at 25° C. Experimental kinetic results were fit to a 1:1 binding model.
(§2) However, if addition of the sandwich antibody produces a binding event, then the sandwich antibody binds to a different epitope on human TREM2 than the load antibody and the two antibodies are categorized into different epitope bins.
(In BLI a coated tip is dipped into the sample, and binding shifts an interference pattern.)
On to B1, for which the sandwich binding signal was 0.154.
The same measure, in the same setting: to B4 belongs 0.368.

Another experiment has the same target. The experiment is described as follows: Octet BLI binning; competitor: load Ab 5E3. The method, then: as §1, §2
For the molecule B1, the sandwich binding signal was found to be 0.335.
Same read-out and setting: under B2 stands 0.53.
Still for that read-out and setting: to B3 belongs -0.027; to B4, -0.014.

For the next experiment the target is unchanged. The experiment is described as follows: Octet BLI binning; competitor: load Ab 6E7. As to the method: as §1, §2
Take B1: the sandwich binding signal is 0.213.
Same read-out and setting: under B2 stands 0.616; under B3, 0.491.
In the case of B4, the sandwich binding signal came out at 0.523.

The target is the same in the next experiment. The experiment is described as follows: Octet BLI binning; competitor: load Ab 10E3. The method, then:
as §1, §2
In the case of B1, the sandwich binding signal turned out to be 0.089.
Consider B2, for which the sandwich binding signal came out at 0.347.
On the same count and under the same terms, to B3 belongs 0.259.
On the same count and under the same terms, to B4 belongs 0.275.

The target is the same in a further experiment. As to the kind of experiment: Octet BLI binning; competitor: load Ab 13E7. The method, then:
as §1, §2
B1: the sandwich binding signal turned out to be 0.104.
Same read-out and setting: to B2 belongs 0.375; to B3, 0.272; to B4, 0.294.

A further experiment has the same target. The experiment is described as follows: Octet BLI binning; competitor: load Ab 16B8. As to the method: as §1, §2
Take B1: the sandwich binding signal was 0.252.
On the same count and under the same terms, under B2 stands 0.481; under B3, -0.018; under B4, -0.003.

A further experiment has the same target. As to the kind of experiment: Octet BLI binning; competitor: load Ab 24F4. The method, then: as §1, §2
With B1, the sandwich binding signal was determined as 0.18.
For B2, the sandwich binding signal worked out at 0.585.
On the same count and under the same terms, under B3 stands 0.449; under B4, 0.477.

The target is the same in a further experiment. As to the kind of experiment: Octet BLI binning; competitor: load Ab 24G6. As to the method: as §1, §2
For B1, the sandwich binding signal was determined as 0.284.
On the same count and under the same terms, to B2 belongs -0.031.
The same measure, in the same setting: under B3 stands 0.354; under B4, 0.399.

A further experiment shares this target. As to the kind of experiment: Octet BLI binning; competitor: load Ab 26F2. As to the method:
as §1, §2
As for B1, the sandwich binding signal was 0.33.
The same measure, in the same setting: under B2 stands 0.544; under B3, -0.016.
Same read-out and setting: under B4 stands -0.008.

The target is the same in the next experiment. The experiment is described as follows: Octet BLI binning; competitor: load Ab 32E3. As to the method: as §1, §2
Take B1: the sandwich binding signal stood at 0.236.
Same read-out and setting: under B2 stands 0.461; under B3, 0.362; under B4, 0.411.

The target is the same in another experiment. The experiment is described as follows: Octet BLI binning; competitor: load Ab 4G10. As to the method:
as §1, §2
Consider B1, for which the sandwich binding signal turned out to be 0.142.
Still for that read-out and setting: to B4 belongs 0.334.

The target is the same in another experiment. The experiment is described as follows: Octet BLI binning; competitor: load Ab 24A10. As to the method: as §1, §2
As for B1, the sandwich binding signal amounted to 0.34.
Same read-out and setting: under B2 stands 0.023; under B3, 0.454; under B4, 0.49.

The next experiment shares this target. The experiment is described as follows: Octet BLI binning; competitor: load Ab 25F12. The method, then: as §1, §2
Consider B1, for which the sandwich binding signal is 0.011.
On the same count and under the same terms, under B2 stands 0.509; under B3, 0.343.
Still for that read-out and setting: under B4 stands 0.366.

The target is the same in another experiment. The experiment is described as follows: Octet BLI binning; competitor: load Ab 26A10. The method, then:
as §1, §2
For B1, the sandwich binding signal turned out to be 0.347.
Still for that read-out and setting: under B2 stands 0.596.
With B3, the sandwich binding signal is -0.001.
On the same count and under the same terms, to B4 belongs 0.009.

Another experiment shares this target. As to the kind of experiment: Octet BLI binning; competitor: load Ab 26C10. The method, then:
as §1, §2
For the molecule B1, the sandwich binding signal was determined as 0.327.
The same measure, in the same setting: to B2 belongs 0.605; to B3, -0.033.
Still for that read-out and setting: under B4 stands -0.003.

A further experiment has the same target. As to the kind of experiment: Octet BLI binning; competitor: load Ab 33B12. As to the method: as §1, §2
B1: the sandwich binding signal was 0.275.
B2: the sandwich binding signal amounted to 0.439.
Same read-out and setting: to B3 belongs -0.02; to B4, -0.009.

The target of the next experiment is T3, soluble human TREM2 protein (TREM2 …). The experiment is described as follows: ELISA, hybridoma supernatant on captured biotinylated TREM2 ECD-Fc. The method, then:
Exhausted hybridoma supernatants were tested for binding to human TREM2 by ELISA. Briefly, neutravidin plates were generated by incubating a 384 well Corning Assay Plate 3702 with neutravidin (Thermo 3100B) at 10 μg/mL (40 μL/well) in 1× PBS at 4° C. overnight. The plates were washed with 1× PBS using a Biotek plate washer and then blocked with 1% milk/1× PBS (90 μL/well) at room temperature (RT) for 30 minutes. The plates were then washed again with 1× PBS using the plate washer. […] The plates were then incubated at RT for 1 hour to immobilize the TREM2 protein to the wells of the plates. Following the incubation, the plates were again washed with 1× PBS using the plate washer. 10 μL of each hybridoma supernatant to be tested and 40 μL of 1% milk/1× PBS (1:5 dilution) were added to each well of the plates and incubated at RT for 1 hour. Again, the plates were washed with 1× PBS using the plate washer. […] After the plates were washed with 1× PBS using the plate washer, 40 μL/well of TMB substrate (Neogen, lot #150114) was added to the plates and the plates were incubated at RT for 30 minutes. The reaction was quenched with 1N hydrochloric acid (40 uL/well) following the incubation period. OD readings at 450 nm were obtained with a plate reader.
For the molecule B1, the “OD 450” value came to 1.29 OD450.
The same measure, in the same setting: to B2 belongs 2.75 OD450; to B3, 1.16 OD450.
The same measure, in the same setting: under B4 stands 1.48 OD450.
